Patent US8470556B2, “Nucleic acids that encode antigen binding proteins that bind PAR-2” (Amgen Inc., priority 2007, dated 2013)

How the values were obtained:
[1] = target: T1, N-terminal PAR-2/Fc (full length and truncated) (Homo sapiens, UniProt P55085); test: Western blot, binding to uncleaved versus clipped N-terminal PAR-2/Fc; details: upstream binder binds only full-length PAR-2/Fc
T1 construct: made in house; host or cells: CHO cells (10% FCS for uncleaved; serum-free for clipped)
Text: N-terminal PAR-2/Fc polypeptide (SEQ ID NO:6) is expressed in suitable mammalian cells such as CHO cells. Expression supernatant from CHO expression cells cultured in serum-free media contain a CHO cell trypsin-like serine protease that cleaves PAR-2/Fc at the activation Arg-Ser bond, generating the “clipped” version of the PAR-2/Fc polypeptide. CHO expression cells cultured in 10% fetal calf serum (which contains normal levels of plasma proteinase inhibitors at concentrations far in excess of the concentration of the CHO cell trypsin-like serine protease) express uncleaved N-terminal PAR-2/Fc in culture supernatants. Both clipped and uncleaved proteins are purified using methods that are suitable for isolation and purification of proteins comprising an Fc regions (for example, using a MabSelect™ resin systems, from GE Healthcare, Piscataway, N.J.)). The resultant purified Fc-constructs are analyzed by amino terminal sequence analysis (Edman degradation), size exclusion chromatrography, absorbance spectral scan, and mass spectroscopy, as needed.
To analyze binding to uncleaved versus cleaved PAR-2, various amounts of purified uncleaved and clipped N-terminal PAR2-Fc are subjected to SDS-PAGE using 8-16% polyacrylamide gradient gels (Novex gels, Invitrogen Life Technologies) in a Tris-Glycine buffer system. Gel lanes containing See Blue standards (Novex, Invitrogen Life Technologies) for molecular weight identification are also included. Following electrophoresis, proteins are transferred from gels onto nitrocellulose membranes using a Novex XCell II Blot Module (Invitrogen Life Technologies). Membranes are blocked with 1:1, Odyssey blocking buffer, OBB, (LI-COR Biosciences):TBS (Tris Buffer Saline) overnight at 4 C with shaking. Antibodies to be analyzed are diluted in 1:1 OBB:TBS at a desired final concentration for 1 hr at room temperature. Membranes are washed extensively with 0.1% Tween 20 in TBS (3-4 changes of 100 ml over ˜1 hr). Membranes are then exposed to the appropriate secondary antibody-Alexa680 (Molecular Probes, Invitrogen Life Technologies) conjugate (goat anti-rabbit IgG, or goat anti-mouse IgG) diluted 1:5000 in 1:1 (OBB:TBS) for 1 hr at room temperature. Membranes are washed as described above, and if desired, analyzed using a LI-COR Odyssey Infrared Imaging System (LI-COR Biosciences).
Several PAR-2 antibodies were tested in different assay formats; Table 2 summarizes the results. IC50 values were determined in a FLIPR assay for Ca2+ mobilization described previously; binding to the upstream region of the cleavage site versus the downstream region of the cleavage site was determined using the Western blot assay described previously.

[2] = target: T2, cell surface expressed human PAR-2 (Homo sapiens, UniProt P55085); test: KinExA binding to cell surface expressed PAR-2; details: initial analysis, 95% confidence interval of 1.36 to 5.47 nM, N=2 experiments
T2 construct: expressed in transfected cells; host or cells: CHO cells
T2 sequence (P55085 26-397): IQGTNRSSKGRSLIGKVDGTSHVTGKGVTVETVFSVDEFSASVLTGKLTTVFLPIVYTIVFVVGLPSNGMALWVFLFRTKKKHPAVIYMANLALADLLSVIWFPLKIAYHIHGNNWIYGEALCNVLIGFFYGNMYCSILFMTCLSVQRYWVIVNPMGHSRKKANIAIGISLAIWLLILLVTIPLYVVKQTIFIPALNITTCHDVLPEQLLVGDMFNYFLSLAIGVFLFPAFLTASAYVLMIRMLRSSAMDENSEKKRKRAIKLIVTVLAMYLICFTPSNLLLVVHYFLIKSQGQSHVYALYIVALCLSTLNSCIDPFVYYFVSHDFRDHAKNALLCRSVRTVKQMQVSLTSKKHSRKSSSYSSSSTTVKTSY
Text: This example describes the analysis of the binding properties of PAR-2 antigen-binding proteins to cell surface expressed PAR-2 utilizing a Kinetic Exclusion Assay which measures binding events in solution phase and can be used to calculate KD, Kon and Koff (KinExA®; Sapidyne Instruments, Boise, Id.), substantially as described previously by Xie et. al. J. Imm, Methods 304:1 (2005) and Rathanaswami et. al. Anal. Biochem. 373:52 (2008). Briefly, serial dilutions of cells expressing human PAR-2 (for example, CHO transfectants expressing human PAR-2 at the cell surface, obtainable by transfecting CHO cells with human full length PAR-2 cDNA encoding a polypeptide of SEQ ID NO:2) and control cells (i.e., non-transfected CHO cells) in a modified DMEM medium (phenol red free containing 10% heat inactivated FBS, 0.1 mM MEM non-essential amino acids, 1 mM sodium pyruvate, penicillin-streptomycin-glutamine, and 0.025% (w/w) sodium azide) are incubated with set amounts of antibody for 24 to 36 hours at 4 C with rotation. […] The free mAb is measured by KinExA® using the appropriate capture beads and Cy5-conjugated anti-human secondary antibodies, as described by Rathanaswami et al. Biochem Biophys Research Commun: 1004 (2005). […]
The KD of certain PAR-2 antibodies was determined in this manner.

T1 sequence (P55085 with tags, fused parts or gaps limits assumed): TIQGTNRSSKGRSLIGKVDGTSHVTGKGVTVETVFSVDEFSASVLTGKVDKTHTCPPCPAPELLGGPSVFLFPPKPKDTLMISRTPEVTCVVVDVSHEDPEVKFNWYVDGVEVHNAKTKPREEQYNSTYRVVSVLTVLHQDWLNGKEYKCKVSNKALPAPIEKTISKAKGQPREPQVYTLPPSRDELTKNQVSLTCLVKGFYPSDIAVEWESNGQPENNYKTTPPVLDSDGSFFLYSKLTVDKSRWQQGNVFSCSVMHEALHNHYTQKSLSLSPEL

B1: 1B5: anti-PAR-2 monoclonal antibody; heavy SEQ ID NO: 13, light SEQ ID NO: 15 (antibody, listed as Homo sapiens)
heavy: EVQLVQSGAEVKKSGESLKISCKGSGYSFSNYWIGWVRQMPGKGLEWMGIIYPGDSDTRYSPSFQGQVTISADKSIRTAYLQWSSLKASDTAMYYCARHKGITGTTFYYDYGMDVWGQGTTVTVSS
light: SYELTQPPSVSVSPGQTARITCSGEALPKQYASWYQQKPGQAPVLVIYRDTERPSGIPERFSGSSSGTTVTLTISGVQAEDEADYYCQSADSNGAYVFGTGTRVTVL
Binding to Cleavage Site Up stream [1]: xxx | Kd [2]: 3.39 nM
